According to patent US20110263454A1, “Methods of Identifying Functional Characteristics of Promoters, Transcription Modifying Proteins and Transcription Modulating Agents” (Salk Institute for Biological Studies, priority 2008, published 2011):

B1: PXR: Pregnane X Receptor (NR1I2), cDNA driver (protein, UniProt O75469 1-434, looked up)
Nuclear receptor subfamily 1 …: MEVRPKESWNHADFVHCEDTESVPGKPSVNADEEVGGPQICRVCGDKATGYHFNVMTCEGCKGFFRRAMKRNARLRCPFRKGACEITRKTRRQCQACRLRKCLESGMKKEMIMSDEAVEERRALIKRKKSERTGTQPLGVQGLTEEQRMMIRELMDAQMKTFDTTFSHFKNFRLPGVLSSGCELPESLQAPSREEAAKWSQVRKDLCSLKVSLQLRGEDGSVWNYKPPADSGGKEIFSLLPHMADMSTYMFKGIISFAKVISYFRDLPIEDQISLLKGAAFELCQLRFNTVFNAETGTWECGRLSYCLEDTAGGFQQLLLEPMLKFHYMLKKLQLHEEEYVLMQAISLFSPDRPGVLQHRVVDQLQEQFAITLKSYIECNRPQPAHRFLFLKIMAMLTELRSINAQHTQRLLRIQDIHPFATPLMQELFGITGS
B2: CAR: Constitutive Androstane Receptor (NR1I3), cDNA driver (protein, UniProt Q14994 1-352, looked up)
Nuclear receptor subfamily 1 …: MASREDELRNCVVCGDQATGYHFNALTCEGCKGFFRRTVSKSIGPTCPFAGSCEVSKTQRRHCPACRLQKCLDAGMRKDMILSAEALALRRAKQAQRRAQQTPVQLSKEQEELIRTLLGAHTRHMGTMFEQFVQFRPPAHLFIHHQPLPTLAPVLPLVTHFADINTFMVLQVIKFTKDLPVFRSLPIEDQISLLKGAAVEICHIVLNTTFCLQTQNFLCGPLRYTIEDGARVSPTVGFQVEFLELLFHFHGTLRKLQLQEPEYVLLAAMALFSPDRPGVTQRDEIDQLQEEMALTLQSYIKGQQRRPRDRFLYAKLLGLLAELRSINEAYGYQIQHIQGLSAMMPLLQEICS
B3: RXRb: Retinoic X Receptor β (NR2B2), cDNA driver (protein, UniProt P28702 1-533, looked up)
Retinoic acid receptor …: MSWAARPPFLPQRHAAGQCGPVGVRKEMHCGVASRWRRRRPWLDPAAAAAAAVAGGEQQTPEPEPGEAGRDGMGDSGRDSRSPDSSSPNPLPQGVPPPSPPGPPLPPSTAPSLGGSGAPPPPPMPPPPLGSPFPVISSSMGSPGLPPPAPPGFSGPVSSPQINSTVSLPGGGSGPPEDVKPPVLGVRGLHCPPPPGGPGAGKRLCAICGDRSSGKHYGVYSCEGCKGFFKRTIRKDLTYSCRDNKDCTVDKRQRNRCQYCRYQKCLATGMKREAVQEERQRGKDKDGDGEGAGGAPEEMPVDRILEAELAVEQKSDQGVEGPGGTGGSGSSPNDPVTNICQAADKQLFTLVEWAKRIPHFSSLPLDDQVILLRAGWNELLIASFSHRSIDVRDGILLATGLHVHRNSAHSAGVGAIFDRVLTELVSKMRDMRMDKTELGCLRAIILFNPDAKGLSNPSEVEVLREKVYASLETYCKQKYPEQQGRFAKLLLRLPALRSIGLKCLEHLFFFKLIGDTPIDTFLMEMLEAPHQLA
B4: RXRg: Retinoic X Receptor γ (NR2B3), cDNA driver (protein, UniProt P48443 1-463, looked up)
Retinoic acid receptor …: MYGNYSHFMKFPAGYGGSPGHTGSTSMSPSAALSTGKPMDSHPSYTDTPVSAPRTLSAVGTPLNALGSPYRVITSAMGPPSGALAAPPGINLVAPPSSQLNVVNSVSSSEDIKPLPGLPGIGNMNYPSTSPGSLVKHICAICGDRSSGKHYGVYSCEGCKGFFKRTIRKDLIYTCRDNKDCLIDKRQRNRCQYCRYQKCLVMGMKREAVQEERQRSRERAESEAECATSGHEDMPVERILEAELAVEPKTESYGDMNMENSTNDPVTNICHAADKQLFTLVEWAKRIPHFSDLTLEDQVILLRAGWNELLIASFSHRSVSVQDGILLATGLHVHRSSAHSAGVGSIFDRVLTELVSKMKDMQMDKSELGCLRAIVLFNPDAKGLSNPSEVETLREKVYATLEAYTKQKYPEQPGRFAKLLLRLPALRSIGLKCLEHLFFFKLIGDTPIDTFLMEMLETPLQIT
B5: RORb: RAR-related Orphan Receptor β (NR1F2), cDNA driver (protein, UniProt Q92753 1-470, looked up)
Nuclear receptor ROR-beta: MCENQLKTKADATAQIEVIPCKICGDKSSGIHYGVITCEGCKGFFRRSQQNNASYSCPRQRNCLIDRTNRNRCQHCRLQKCLALGMSRDAVKFGRMSKKQRDSLYAEVQKHQQRLQEQRQQQSGEAEALARVYSSSISNGLSNLNNETSGTYANGHVIDLPKSEGYYNVDSGQPSPDQSGLDMTGIKQIKQEPIYDLTSVPNLFTYSSFNNGQLAPGITMTEIDRIAQNIIKSHLETCQYTMEELHQLAWQTHTYEEIKAYQSKSREALWQQCAIQITHAIQYVVEFAKRITGFMELCQNDQILLLKSGCLEVVLVRMCRAFNPLNNTVLFEGKYGGMQMFKALGSDDLVNEAFDFAKNLCSLQLTEEEIALFSSAVLISPDRAWLIEPRKVQKLQEKIYFALQHVIQKNHLDDETLAKLIAKIPTITAVCNLHGEKLQVFKQSHPEIVNTLFPPLYKELFNPDCATGCK
B6: HNF4g: Hepatocyte Nuclear Factor γ (NR2A2), cDNA driver (protein, UniProt Q14541 1-408, looked up)
Hepatocyte nuclear factor …: MNTTDNGVNCLCAICGDRATGKHYGASSCDGCKGFFRRSIRKSHVYSCRFSRQCVVDKDKRNQCRYCRLRKCFRAGMKKEAVQNERDRISTRRSTFDGSNIPSINTLAQAEVRSRQISVSSPGSSTDINVKKIASIGDVCESMKQQLLVLVEWAKYIPAFCELPLDDQVALLRAHAGEHLLLGATKRSMMYKDILLLGNNYVIHRNSCEVEISRVANRVLDELVRPFQEIQIDDNEYACLKAIVFFDPDAKGLSDPVKIKNMRFQVQIGLEDYINDRQYDSRGRFGELLLLLPTLQSITWQMIEQIQFVKLFGMVKIDNLLQEMLLGGASNDGSHLHHPMHPHLSQDPLTGQTILLGPMSTLVHADQISTPETPLPSPPQGSGQEQYKIAANQASVISHQHLSKQKQL

How the values were obtained:
hCAR promoter = assay: NHR-promoter luciferase screen, hCAR promoter; type: cell-based, human; conditions: for luciferase activity normalized to lacZ activity and to a control, hCAR: hCAR promoter-luciferase, CV-1 cells, NHR +/- ligand, control = 1.00; for Luc. act., normalized to lacZ / Normalized Luc. act., normalized to control: hCAR promoter, HR/ligand component
Summary of the method: (§1)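 CV-1 cells were co-transfected with 50 ng NHR (homodimer or NHR/RXR heterodimer), 100 ng promoter-luciferase construct and 50 ng LacZ. Luciferase was normalized to LacZ and to a no-NHR/no-ligand control.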

mUCP3 promoter = assay: NHR-promoter luciferase screen, mUCP3 promoter; type: cell-based, mouse; conditions: for Normalized Luc. act., normalized to control / Luc. act., normalized to lacZ: mUCP3 promoter reporter; for Normalized Luc. act., normalized to control: HR without or with its ligand, relative to control; for Luc. act., normalized to lacZ: hormone receptor (HR) without or with its ligand; for mUCP3 promoter reporter activity: transcription factor +/- ligand, control = 1.00
Summary of the method: as §1

mABCA1 promoter = assay: NHR-promoter luciferase screen, mABCA1 promoter; type: cell-based, mouse; conditions: for Luc. act., normalized to lacZ / Normalized Luc. act., normalized to control: ABCA1 promoter, hormone receptor with or without its ligand; for Normalized Luc. act., normalized to control: relative to control; for mABCA1 promoter reporter activity: transcription factor +/- ligand, control = 1.00
Summary of the method: as §1

mNPY promoter = assay: NHR-promoter luciferase screen, mNPY promoter; type: cell-based, mouse; conditions: for Results of assays of transcription factor (+/- ligand) with mNPY: Table 6d, luciferase activity relative to control (control = 1.00); for Luc. act., normalized to lacZ / Normalized Luc. act., normalized to control: mNPY promoter, HR component with or without ligand; for Normalized Luc. act., normalized to control: relative to control
Summary of the method: as §1

mAdiponectin promoter = assay: NHR-promoter luciferase screen, mAdiponectin promoter; type: cell-based, mouse; conditions: for Luc. act., normalized to lacZ / Normalized Luc. act., normalized to control: Adiponectin, HR component without or with its ligand; for mAdiponectin promoter reporter activity: transcription factor +/- ligand, control = 1.00
Summary of the method: as §1

mLeptin promoter = assay: NHR-promoter luciferase screen, mLeptin promoter; type: cell-based, mouse; conditions: for Luc. act., normalized to lacZ / Normalized Luc. act., normalized to control: Table 7, mLeptin; for Results of assays of transcription factor (+/- ligand) with mLeptin: Table 6d, luciferase activity relative to control (control = 1.00)
Summary of the method: as §1

Molecule | luciferase activity normalized to lacZ activity and to a control, hCAR (hCAR promoter) | Luc. act., normalized to lacZ (hCAR promoter) | Normalized Luc. act., normalized to control (hCAR promoter) | Normalized Luc. act., normalized to control (mUCP3 promoter) | Luc. act., normalized to lacZ (mUCP3 promoter) | mUCP3 promoter reporter activity (mUCP3 promoter) | Luc. act., normalized to lacZ (mABCA1 promoter) | Normalized Luc. act., normalized to control (mABCA1 promoter) | mABCA1 promoter reporter activity (mABCA1 promoter) | Results of assays of transcription factor (+/- ligand) with mNPY (mNPY promoter) | Luc. act., normalized to lacZ (mNPY promoter) | Normalized Luc. act., normalized to control (mNPY promoter) | Luc. act., normalized to lacZ (mAdiponectin promoter) | Normalized Luc. act., normalized to control (mAdiponectin promoter) | mAdiponectin promoter reporter activity (mAdiponectin promoter) | Luc. act., normalized to lacZ (mLeptin promoter) | Normalized Luc. act., normalized to control (mLeptin promoter) | Results of assays of transcription factor (+/- ligand) with mLeptin (mLeptin promoter)
B1 | 1.16 | 36.5 | 1.2 | 1.3 | 0.9 | 1.34 | 15.2 | 2.7 | 2.72 | 0.83 | 69.8 | 0.8 | 97.1 | 1.5 | 1.55 | 4.1 | 1.4 | 1.40
B2 | 0.82 | 25.9 | 0.8 | 0.9 | 0.6 | 0.90 | 6.1 | 1.1 | 1.08 | 0.88 | 74.2 | 0.9 | 46.8 | 0.7 | 0.74 | 2.7 | 0.9 | 0.93
B3 | 0.95 | 30.1 | 1.0 | 0.8 | 0.6 | 0.83 | 11.1 | 2.0 | 1.97 | 0.80 | 66.9 | 0.8 | 71.8 | 1.1 | 1.14 | 1.5 | 0.5 | 0.50
B4 | 0.93 | 29.3 | 0.9 | 1.4 | 1.0 | 1.41 | 18.3 | 3.3 | 3.26 | 0.97 | 81.2 | 1.0 | 69.4 | 1.1 | 1.10 | 2.1 | 0.7 | 0.70
B5 | 1.05 | 33.3 | 1.1 | 1.3 | 0.9 | 1.33 | 26.4 | 4.7 | 4.69 | 1.12 | 94.2 | 1.1 | 82.7 | 1.3 | 1.32 | 3.3 | 1.1 | 1.12
B6 | 0.81 | 25.5 | 0.8 | 0.8 | 0.6 | 0.84 | 11.3 | 2.0 | 2.01 | 0.96 | 80.7 | 1.0 | 45.4 | 0.7 | 0.72 | 2.4 | 0.8 | 0.82
